Laboratory results published in the supplement of paper PMC9732359.
± gives the uncertainty stated by the source.

Test: protein stability index of a GFP-peptide fusion (yeast GPS) (PSI 1-4); higher = more stable; sorted into four equal gates, so the index is relative within each strain
Conditions: ubr1∆
Outline: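 Mid-log yeast cultures in leucine-free medium, carrying a pooled plasmid library, were sorted into four equal gates by their GFP/Cherry fluorescence ratio. Each plasmid expressed Cherry along with GFP fused upstream of a tiled 17-residue yeast protein peptide. Plasmids recovered from each gate were PCR-amplified and Illumina-sequenced, with reads assigned to strains by barcodes. The protein stability index was obtained by summing each gate's read frequency weighted by its gate number.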

In order of rising protein stability index:
1. MSKIQVAHSSRLANLID [SMB1]  1.2 ± 0.15
2. MVNIGLHNLNEYQIVYY [RGR1]  1.43 ± 0.27
3. NEKRYATASAIAATAVA [RPL4A]  1.5 ± 0.066
4. MTVAHLIECLLSKVAAL [RPB2]  1.54 ± 0.054
5. MVVQKYKLSTVVLRLYL [GRR1]  1.64 ± 0.068
6. MSTESALSYAALILADS [RPP1A]  1.83 ± 0.046
7. MSASNANDFQLTIVTCK [SRB8]  2.03 ± 0.031
8. NDQDMFTIVSLVQLKKF [YML103C/NUP188]  2.04 ± 0.14
9. MTAMRLMLKKLKNSIMS [YML031W/NDC1]  2.28 ± 0.059
10. NAVISHANAAAVYFADT [SIN4]  2.3 ± 0.034
11. NELLEMVGLASGNDSMA [BRR2]  2.32 ± 0.057
12. MSPFLRKVVKPSSLNSD [SRB4]  2.34 ± 0.044
13. NEKVAVMRNTYNTRKNA [GAL11]  2.37 ± 0.09
14. MSEQQWREQLRNRDIAL [ROX3]  2.42 ± 0.048
15. NAGPNSNIPNLLRNLES [YDL088C/ASM4]  2.46 ± 0.031
16. NEHSTSYTFRSEKGLLS [FAS1]  2.46 ± 0.033
17. NDQVEKDAEDETSSDGS [RPN1]  2.59 ± 0.13
18. MSQAVNAKKRVFKTHSY [RPS15]  2.63 ± 0.061
19. NDSNPSFSFSIPSKNTP [YLR335W/NUP2]  2.64 ± 0.047
20. NAVLGLGDMAVCFNNLV [YCS4]  2.68 ± 0.093
21. MTTPQNISSSQQLLPAP [DSN1]  2.81 ± 0.038
22. NDTLPDEISPELLSKYK [SNU114]  2.86 ± 0.075
23. MSTDVAAAQAQSKIDLT [SEM1]  2.88 ± 0.083
24. NEAALVVNITHHELVPK [RPB5]  2.88 ± 0.081
25. MSSNTSSVMSSPRVEKR [YOR098C/NUP1]  3.01 ± 0.088
26. NDNNSPHTPVTRKGYIP [YLR018C/POM34]  3.01 ± 0.055
27. NAFRKEELLLKDLEIRK [GAL11]  3.03 ± 0.13
28. NDIPQTESPLKTVDSSI [SSN2]  3.03 ± 0.032
29. NELLKCKDDVQLQKILE [MTW1]  3.04 ± 0.037
30. NATLQALYRVNDLRDMI [UBP6]  3.05 ± 0.075
31. MWSVARAGQRGYHSRTS [RPL3]  3.11 ± 0.095
32. NEPTQKDEEETEYFENK [DSN1]  3.12 ± 0.23
33. NEDDLTVKLTEIVWTSS [RPO31]  3.14 ± 0.059
34. MTLEDNNVTSNPSEFTP [SSN2]  3.16 ± 0.064
35. NDYLEKHSVTEYIFEAH [CDC53]  3.17 ± 0.1
36. MVEGDSYVETLDSMIEL [MED1]  3.19 ± 0.053
37. MTTQQEEQRSDTKNSKS [ISW2]  3.2 ± 0.19
38. MSGGKGGKAGSAAKASQ [HTA1]  3.24 ± 0.07
39. NANDETTAVEDEDDDLD [RPB4]  3.25 ± 0.092
40. NDLIVNYEDLATTQAAS [BRN1]  3.25 ± 0.061
41. NDEGVWDLVDERTKQRT [PRP8]  3.26 ± 0.12
42. NERLEINQEKPVKLDEN [SIR4]  3.3 ± 0.12
43. NEPAARLGSEADAKAFL [FAS2]  3.31 ± 0.077
44. NEEAEARRLKNRAARDR [RPL19A]  3.33 ± 0.062
45. NEKKTETNAKPFSFSSA [YLR335W/NUP2]  3.36 ± 0.079
46. MTAVRRSTRIRTKSQVI [IRR1]  3.38 ± 0.1
47. NECQRLQNIVMDCTKEE [YIL149C/MLP2]  3.4 ± 0.12
48. MVGLASGNDSMAGKVLI [BRR2]  3.47 ± 0.058
49. MSDFQKEKVEEQEQQQQ [RPS20]  3.51 ± 0.085
50. MTIDDSNRLLMDVDQFD [YJR042W/NUP85]  3.51 ± 0.2
